{
  "source": "patent US20190352376A1",
  "binders": {"B1": {"name": "F211-11H12 (antibody, V domains shown)", "VL": "DIVMSQSPSSLAVSVGEKVTMSCKSSQSLLNSRNQKNHLAWYQQKPGQSPKLLIYWASTRESGVPDRFTGDGSGTDFTLTISSVKAEDLAVYYCQQYYTYRTFGGGTKLEIK", "VH": "DVQLQESGPGLVKPSQSLSLTCSVTGYSITSDYYWNWIRQFPGNKLEWMAYIGYDGTKNYNPSLKNRISITRDTSKNQFFLKLNSVTTDDTATYYCTRDRANWDDYFDYWGQGTTLTVSS"}},
  "biological_target": "peptide-conjugate (Example 1; lactosyl-Ser-…-Cys coupled to KLH) (influenza virus)",
  "note": "“And” between values parts separate entries of the source, which are not always exact repeats. Identical values can stand only once.",
  "data": [
    {"binder": "B1", "values": [
      {"measurement": "EC50 (read off the curve)", "value": "0.03 µg/mL and 0.02 µg/mL"}
    ]}
  ]
}
